Results on one molecule are retold here after publication doi:10.1101/2022.10.06.511240 (bioRxiv, 2022).

The assay deals with T1, NRT1.1-His (Arabidopsis thaliana, UniProt Q05085 1-590).
T1 sequence (looked up): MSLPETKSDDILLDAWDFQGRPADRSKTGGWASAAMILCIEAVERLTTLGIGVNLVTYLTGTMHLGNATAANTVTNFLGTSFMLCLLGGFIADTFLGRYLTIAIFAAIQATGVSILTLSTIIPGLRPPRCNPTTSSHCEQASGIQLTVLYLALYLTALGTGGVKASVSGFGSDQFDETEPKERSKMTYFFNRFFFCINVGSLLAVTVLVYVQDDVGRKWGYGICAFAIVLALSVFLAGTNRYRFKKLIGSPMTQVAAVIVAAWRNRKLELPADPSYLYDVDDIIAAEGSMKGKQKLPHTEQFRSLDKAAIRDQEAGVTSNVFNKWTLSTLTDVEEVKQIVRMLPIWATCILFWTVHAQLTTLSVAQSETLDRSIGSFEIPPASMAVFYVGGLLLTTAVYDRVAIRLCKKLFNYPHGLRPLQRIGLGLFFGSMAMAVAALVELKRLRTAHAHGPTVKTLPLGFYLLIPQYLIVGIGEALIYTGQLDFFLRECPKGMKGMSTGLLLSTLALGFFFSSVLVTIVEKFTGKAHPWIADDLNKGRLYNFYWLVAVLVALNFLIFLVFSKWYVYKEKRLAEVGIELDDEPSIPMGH
Kind of assay: pull-down.

B1: CPK6-GST (enzyme, Arabidopsis thaliana, UniProt Q38872 1-544, looked up)
chain: MGNSCRGSFKDKIYEGNHSRPEENSKSTTTTVSSVHSPTTDQDFSKQNTNPALVIPVKEPIMRRNVDNQSYYVLGHKTPNIRDLYTLSRKLGQGQFGTTYLCTDIATGVDYACKSISKRKLISKEDVEDVRREIQIMHHLAGHKNIVTIKGAYEDPLYVHIVMELCAGGELFDRIIHRGHYSERKAAELTKIIVGVVEACHSLGVMHRDLKPENFLLVNKDDDFSLKAIDFGLSVFFKPGQIFKDVVGSPYYVAPEVLLKHYGPEADVWTAGVILYILLSGVPPFWAETQQGIFDAVLKGYIDFDTDPWPVISDSAKDLIRKMLCSSPSERLTAHEVLRHPWICENGVAPDRALDPAVLSRLKQFSAMNKLKKMALKVIAESLSEEEIAGLRAMFEAMDTDNSGAITFDELKAGLRRYGSTLKDTEIRDLMEAADVDNSGTIDYSEFIAATIHLNKLEREEHLVSAFQYFDKDGSGYITIDELQQSCIEHGMTDVFLEDIIKEVDQDNDGRIDYEEFVAMMQKGNAGVGRRTMKNSLNISMRDV
With B1, the binding result is given as “binds”.
